Data on one substance can be found in PMC2995173.

This test addresses HA-Rad18 S-Box-A (human) (UniProt Q9NS91). Description: co-IP.

For “DNA Polymerase eta (Polη) (from UniProt Q9Y253 1-713) (natural protein)”, the percent reduction of association relative to Rad18 WT (UV-treated cells) was greater than 80%.
